Data on one molecule can be found in patent EP4596582A1 (Sichuan Kelun-Biotech Biopharmaceutical Co., Ltd., dated 2025).

Assay [1] has as its target T1, human B7-H3-4Ig on CHO-S cells (CHO-S-human B7-H3-4Ig) (human, UniProt Q5ZPR3 29-534).
T1 sequence (looked up): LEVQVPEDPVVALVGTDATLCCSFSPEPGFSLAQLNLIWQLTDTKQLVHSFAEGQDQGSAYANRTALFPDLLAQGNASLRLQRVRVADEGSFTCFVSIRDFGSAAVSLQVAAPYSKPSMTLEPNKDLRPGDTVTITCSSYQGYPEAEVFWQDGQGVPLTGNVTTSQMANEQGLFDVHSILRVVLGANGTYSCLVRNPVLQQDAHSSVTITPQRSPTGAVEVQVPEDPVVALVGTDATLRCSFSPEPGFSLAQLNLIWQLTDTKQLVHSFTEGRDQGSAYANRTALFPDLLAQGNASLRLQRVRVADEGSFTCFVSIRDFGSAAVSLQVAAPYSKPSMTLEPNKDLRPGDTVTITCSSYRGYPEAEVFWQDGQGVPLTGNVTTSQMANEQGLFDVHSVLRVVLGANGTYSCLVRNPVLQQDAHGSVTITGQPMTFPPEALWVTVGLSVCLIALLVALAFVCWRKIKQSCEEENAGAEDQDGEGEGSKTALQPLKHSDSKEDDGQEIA
The assay can be described thus: cell-based or functional assay.

In assay [2] the target is T2, human B7-H3-4Ig-His protein (human, UniProt Q5ZPR3 29-466).
T2 construct: extracellular domain; Made in HEK293-EBNA cells
T2 sequence: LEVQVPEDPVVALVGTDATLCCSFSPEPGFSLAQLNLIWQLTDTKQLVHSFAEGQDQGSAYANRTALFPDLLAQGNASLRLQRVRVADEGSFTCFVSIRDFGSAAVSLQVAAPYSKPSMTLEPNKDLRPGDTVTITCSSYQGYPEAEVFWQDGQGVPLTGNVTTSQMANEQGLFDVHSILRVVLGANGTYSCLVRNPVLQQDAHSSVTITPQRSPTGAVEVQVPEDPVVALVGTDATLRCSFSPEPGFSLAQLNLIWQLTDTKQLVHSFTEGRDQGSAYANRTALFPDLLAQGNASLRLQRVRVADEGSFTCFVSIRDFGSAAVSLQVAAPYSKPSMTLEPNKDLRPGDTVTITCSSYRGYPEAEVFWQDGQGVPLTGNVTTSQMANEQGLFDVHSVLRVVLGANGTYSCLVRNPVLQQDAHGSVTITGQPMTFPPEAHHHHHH
The assay can be described thus: ELISA, antigen coated at 1 ug/ml.

For assay [3], the target named is T3, human B7-H3-2Ig on CHO-S cells (CHO-S-human B7-H3-2Ig) (human, UniProt Q5ZPR3 29-316).
T3 construct: also called CHO-S-B7-H3-2Ig
T3 sequence: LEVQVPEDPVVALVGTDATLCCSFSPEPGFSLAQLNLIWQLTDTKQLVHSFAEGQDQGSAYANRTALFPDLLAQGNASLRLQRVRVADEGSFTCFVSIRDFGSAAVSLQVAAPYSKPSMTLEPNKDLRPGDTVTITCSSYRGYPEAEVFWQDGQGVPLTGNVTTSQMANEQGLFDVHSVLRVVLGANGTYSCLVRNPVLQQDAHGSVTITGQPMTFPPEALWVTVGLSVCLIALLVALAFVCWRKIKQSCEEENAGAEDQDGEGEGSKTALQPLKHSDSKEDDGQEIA
The assay can be described thus: flow cytometry on CHO-S-human B7-H3-2Ig cells.

Assay [4] has as its target T2, human B7-H3-4Ig-His protein. The assay can be described thus: ELISA, antigen coated at 1 ug/ml (specificity panel).
In assay [5] the target is T4, monkey B7-H3-4Ig-His protein (monkey).
T4 chain: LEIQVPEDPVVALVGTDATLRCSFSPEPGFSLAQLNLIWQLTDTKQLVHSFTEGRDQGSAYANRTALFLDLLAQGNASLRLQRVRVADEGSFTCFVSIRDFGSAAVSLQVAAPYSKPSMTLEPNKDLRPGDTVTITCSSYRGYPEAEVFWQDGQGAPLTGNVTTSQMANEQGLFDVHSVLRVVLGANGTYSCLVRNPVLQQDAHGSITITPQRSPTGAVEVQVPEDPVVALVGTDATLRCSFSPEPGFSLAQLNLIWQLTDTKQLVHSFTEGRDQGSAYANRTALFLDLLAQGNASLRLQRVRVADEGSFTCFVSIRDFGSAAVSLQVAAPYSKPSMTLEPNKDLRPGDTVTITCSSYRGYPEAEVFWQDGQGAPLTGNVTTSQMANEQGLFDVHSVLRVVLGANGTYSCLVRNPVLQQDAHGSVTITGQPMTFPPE
The assay can be described thus: BLI (ForteBio), antibody captured on Protein A sensor, 1:1 global fit.

In assay [6] the target is T5, human B7-H3-2Ig-His protein (human).
T5 chain: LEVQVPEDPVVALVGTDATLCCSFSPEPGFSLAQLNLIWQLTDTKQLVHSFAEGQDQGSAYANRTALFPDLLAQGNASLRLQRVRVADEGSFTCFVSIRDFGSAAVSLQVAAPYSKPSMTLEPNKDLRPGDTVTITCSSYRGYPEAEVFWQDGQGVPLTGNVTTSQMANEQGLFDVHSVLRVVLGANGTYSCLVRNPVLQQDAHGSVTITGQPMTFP
The description is as above.

Assay [7] deals with T2, human B7-H3-4Ig-His protein. The assay is described as above.
Assay [8] concerns the target T6, rat B7-H3-2Ig-His protein (rat, UniProt Q7TPB4 29-248).
T6 construct: extracellular domain; also called rat B7-H3-his
T6 sequence: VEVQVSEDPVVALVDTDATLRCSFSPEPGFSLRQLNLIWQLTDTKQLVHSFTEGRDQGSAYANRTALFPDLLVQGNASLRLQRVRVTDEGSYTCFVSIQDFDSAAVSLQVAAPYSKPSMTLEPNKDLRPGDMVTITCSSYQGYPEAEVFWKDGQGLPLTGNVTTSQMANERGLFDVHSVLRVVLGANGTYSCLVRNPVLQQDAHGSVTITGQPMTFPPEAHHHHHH
The assay can be described thus: BLI (ForteBio), antibody captured on Protein A sensor, antigen in solution.

B1: anti-human-B7-H3 human antibody 2#8890 (antibody, human IgG1, kappa, V domains shown)
VH: QVQLQESGPGLVQPSGTLSLTCAVSGGSDSSTNWWTWVRQSPGQGLEWIGEISPIGFTSYSPSLRSRVTISVDKSKTQFSLKLSSVTAADTAVYYCARDRLYFAFWGQGTLVTVSS
VL: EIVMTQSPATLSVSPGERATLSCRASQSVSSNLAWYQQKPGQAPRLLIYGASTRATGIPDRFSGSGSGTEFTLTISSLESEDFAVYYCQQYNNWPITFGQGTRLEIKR
As for B1, in assay [1], the “CDC: EC50 of killing of target cell CHO-S-B7-H3-4Ig with 10% guinea pig serum complement” value turned out to be 2.92 µg/mL. Besides, the figures for the EC50 in assay [2], in assay [3] and in assay [4] were 0.00193 µg/mL, 0.0684 µg/mL and 0.00193 µg/mL, respectively. In addition, the equilibrium dissociation constant (Kd) in assay [5] was determined as 1.24 nM; in assay [6], 18.3 nM; in assay [7] it was 0.783 nM. In addition, the binding result in assay [8] is reported as “no binding (tested: 200 nM highest concentration)”.
